Source: paper PMC9014876, “Vault RNA1–1 riboregulates the autophagic function of p62 by binding to lysine 7 and arginine 21, both of which are critical for p62 oligomerization”

Biological target: MBP-p62 WT (Homo sapiens, UniProt Q13501 1-440)
Assay: EMSA; 2.5 mM Mg2+; bacterial tRNA and BSA; EMSA: 20 mM HEPES pH 7.9, 100 mM KCl, 2.5 mM MgCl2, 5 mM DTT, 0.2 mM EDTA, 20% glycerol, 1 mg/mL BSA, 150 nM tRNA, room temperature; NMR: 20 mM MES pH 6.5, 100
Conditions: protein: recombinant; tags: MBP; label: 32P (internal alpha-UTP for EMSA; end-labelled for footprinting); base-paired terminal stem, central flexible loop

B1: vault RNA1-1 WT (structured_RNA)
RNA: GGCUGGCUUUAGCUCAGCGGUUACUUCGACAGUUCUUUAAUUGAAACAAGCAACCUGUCUGGGUUGUUCGAGACCCGCGGGCGCUCUCCAGUCCUUU
  binding result: binds
